The record followed here is paper PMC4613530, “Structure-based design and functional studies of novel noroviral 3C protease chimaeras offer insights into substrate specificity” (Biochemical Journal, 2014).

The data set concerns the molecule itself. Put plainly: non-reducing PAGE; purified NS6 proteases analysed by non-reducing PAGE; major band at approximately 18 kDa, minor band at approximately 36 kDa taken as the dimer.

B1: wild-type murine norovirus NS6 protease (enzyme)
chain: APVSIWSRVVQFGTGWGFWVSGHVFITAKHVAPPKGTEIFGRKPGDFTVTSSGDFLKYYFTSAVRPDIPAMVLENGCQEGVVASVLVKRASGEMLALAVRMGSQAAIKIGSAVVHGQTGMLLTGSNAKAQDLGTIPGDCGCPYVYKKGNTWVVIGVHVAATRSGNTVIAATHGEPTLEALEFQ
notes: NS6 protease (3C-like protease), cut product of the ORF1 polyprotein of murine norovirus 1; expressed flanked by 41 residues of NS5 and 41 residues of NS7 and released by self-cleavage as the 19 kDa mature NS6; its strain may differ at a few residues from the UniProt entry; The tags sit upstream of the NS5 stretch and leave with it on self-excision; also called wtMNV NS6; MNV NS6; not shown: His …
B1: the binding result is recorded as “binds”.

B2: wild-type Southampton virus NS6 protease (enzyme)
chain: APPTLWSRVTKFGSGWGFWVSPTVFITTTHVIPTSAKEFFGEPLTSIAIHRAGEFTLFRFSKKIRPDLTGMILEEGCPEGTVCSVLIKRDSGELLPLAVRMGAIASMRIQGRLVHGQSGMLLTGANAKGMDLGTIPGDCGAPYVYKRANDWVVCGVHAAATKSGNTVVCAVQASEGETTLE
notes: NS6 protease (3C-like protease), cut product of the ORF1 polyprotein of Southampton virus (human norovirus); also called wtSV NS6; SV NS6
For B2, the binding result is “binds”.
